Reference: US20170096474A1 (published 2017)

Experiments:
[1] = biological target: T1, BoNT/B light chain (LC), yeast displayed (Clostridium botulinum, UniProt P10844 1-441); experiment: labeled detection mAb in flow cytometry sorting
T1 sequence: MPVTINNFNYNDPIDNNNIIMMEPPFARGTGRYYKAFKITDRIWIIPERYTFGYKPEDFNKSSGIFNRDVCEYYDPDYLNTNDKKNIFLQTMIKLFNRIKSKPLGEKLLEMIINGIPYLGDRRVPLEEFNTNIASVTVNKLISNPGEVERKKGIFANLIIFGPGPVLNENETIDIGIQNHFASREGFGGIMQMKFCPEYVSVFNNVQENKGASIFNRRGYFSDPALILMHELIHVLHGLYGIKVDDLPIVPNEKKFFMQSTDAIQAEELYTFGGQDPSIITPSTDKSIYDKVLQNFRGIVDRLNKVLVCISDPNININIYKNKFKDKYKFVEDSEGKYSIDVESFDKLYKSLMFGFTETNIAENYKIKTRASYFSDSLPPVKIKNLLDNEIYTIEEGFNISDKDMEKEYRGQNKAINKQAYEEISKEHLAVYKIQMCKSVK

[2] = biological target: T2, Botulinum neurotoxin type B, subtype B1 (BoNT/B1) (Clostridium botulinum, UniProt P10844 2-1291)
T2 sequence: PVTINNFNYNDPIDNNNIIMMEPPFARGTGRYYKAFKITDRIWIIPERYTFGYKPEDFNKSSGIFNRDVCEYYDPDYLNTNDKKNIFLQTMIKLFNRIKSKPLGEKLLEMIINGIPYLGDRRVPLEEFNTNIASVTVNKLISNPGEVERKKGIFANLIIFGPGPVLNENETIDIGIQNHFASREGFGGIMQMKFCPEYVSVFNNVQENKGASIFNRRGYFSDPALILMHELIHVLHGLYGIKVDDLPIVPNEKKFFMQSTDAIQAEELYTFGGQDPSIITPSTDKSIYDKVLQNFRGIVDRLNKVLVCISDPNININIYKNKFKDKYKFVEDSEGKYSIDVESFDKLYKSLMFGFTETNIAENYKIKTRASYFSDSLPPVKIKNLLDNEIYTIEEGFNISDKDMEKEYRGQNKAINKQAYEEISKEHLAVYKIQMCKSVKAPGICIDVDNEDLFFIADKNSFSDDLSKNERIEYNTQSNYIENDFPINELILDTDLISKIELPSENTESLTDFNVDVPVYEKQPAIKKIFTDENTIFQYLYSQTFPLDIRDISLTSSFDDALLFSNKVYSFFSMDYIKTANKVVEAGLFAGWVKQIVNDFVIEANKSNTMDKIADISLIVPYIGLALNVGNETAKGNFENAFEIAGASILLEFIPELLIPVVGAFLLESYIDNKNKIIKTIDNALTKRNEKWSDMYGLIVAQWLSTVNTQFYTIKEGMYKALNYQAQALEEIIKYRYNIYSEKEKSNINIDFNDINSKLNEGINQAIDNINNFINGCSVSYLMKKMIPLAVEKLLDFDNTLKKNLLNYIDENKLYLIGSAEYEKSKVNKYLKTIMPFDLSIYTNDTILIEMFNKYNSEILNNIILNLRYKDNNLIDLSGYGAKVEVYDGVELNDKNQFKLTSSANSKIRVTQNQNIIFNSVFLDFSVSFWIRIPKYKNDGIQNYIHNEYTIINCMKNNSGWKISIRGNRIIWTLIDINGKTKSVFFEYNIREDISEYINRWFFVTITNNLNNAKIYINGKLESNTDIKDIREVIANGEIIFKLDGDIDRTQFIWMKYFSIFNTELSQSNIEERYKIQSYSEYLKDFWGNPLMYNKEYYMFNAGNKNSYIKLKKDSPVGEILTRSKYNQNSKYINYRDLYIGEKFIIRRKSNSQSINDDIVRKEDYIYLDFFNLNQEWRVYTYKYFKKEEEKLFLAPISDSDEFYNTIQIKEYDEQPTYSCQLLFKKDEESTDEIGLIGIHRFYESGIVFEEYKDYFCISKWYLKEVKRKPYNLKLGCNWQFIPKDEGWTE

[3] = biological target: T3, BoNT/B translocation domain (HN), yeast displayed (Clostridium botulinum, UniProt P10844 442-857); experiment: IgG/Fab on yeast-displayed toxin domain, flow cytometry
T3 sequence: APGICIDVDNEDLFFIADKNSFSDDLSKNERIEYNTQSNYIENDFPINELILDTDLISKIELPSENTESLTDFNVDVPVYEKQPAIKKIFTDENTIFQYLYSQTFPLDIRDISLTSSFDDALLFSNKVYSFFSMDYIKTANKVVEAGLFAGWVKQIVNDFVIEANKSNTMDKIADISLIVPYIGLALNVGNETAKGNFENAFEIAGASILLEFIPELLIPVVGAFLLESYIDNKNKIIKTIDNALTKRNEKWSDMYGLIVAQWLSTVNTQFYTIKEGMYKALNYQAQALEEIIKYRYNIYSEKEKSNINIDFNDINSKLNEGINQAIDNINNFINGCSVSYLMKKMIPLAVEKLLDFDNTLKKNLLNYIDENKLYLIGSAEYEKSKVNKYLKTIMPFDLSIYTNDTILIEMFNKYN

[4] = biological target: T3, BoNT/B translocation domain (HN), yeast …; experiment: soluble scFv or IgG on yeast-displayed BoNT/B domains
[5] = biological target: T1, BoNT/B light chain (LC), yeast displayed; experiment: yeast-displayed scFv
[6] = biological target: T2, Botulinum neurotoxin type B, subtype B1 …; experiment: flow cytometry, yeast-displayed Fab
[7] = biological target: Botulinum neurotoxin type B, subtype B2 (BoNT/B2) (Clostridium botulinum); experiment: flow cytometry, yeast-displayed Fab against yeast-displayed scFv
[8] = biological target: T1, BoNT/B light chain (LC), yeast displayed; experiment: soluble scFv or IgG on yeast-displayed BoNT/B domains
[9] = biological target: T3, BoNT/B translocation domain (HN), yeast …; experiment: yeast-displayed scFv

B1: A12 IgG (antibody, V domains shown)
VH: EVQLVESGGGVVQPGRSLRLSCAASGFTFSSYGMHWVRQAPGKGLEWVAVIWYDGSNKYYADSVKGRFTISRDNSKNTLYLQMNSLRAEDTAVYYCARGYSNYDYYYGMDVWGQGTTVTVSS
VL: DIQMTQSPSSLSASVGDRVTITCRASQRISNYLNWYQQKPGKAPKLLIYAASSLQSEVPSRFSGSGSGTDFTLTISSLQPEDFATYYCQQSYRPPLTFGGGTKVEIKR
binding result [1]: binds

B2: 4B19.1 IgG (antibody, V domains shown)
VH: QVQLVQSGAEVKKPGASVNVSCKASGYTFTGYYIYWVRQAPGQGLEWMGWINPNSGVTKYAQKFQGRVTMTIDTSTNTAYMELNRLRADDTAVYYCAREWTQLWSPYDYWGQGTTVTVSS
VL: DIVLTQSPSTLSASVGDRVTISCRASRSIGWYLNWYQQRPGKAPKLLIYAASSLHNGVPSRFSGSGSGTEFTLTISSLQPDDFATYYCQQAFGFPRTFGQGTKVEIKR
fold increase in affinity, IgG against parental scFv [2]: 2.25 fold

B3: 4E17.1 IgG (antibody, V domains shown)
VH: EVQLVRSGGNLVQPGGSLRLSCAATGPIGSHWMTWVRQAPGQGLEWVANINLDGTEKFYVDSVKGRFTVSRDNRKSSVFLQMNNLRVDDTAVYYCARLQWGGYNGWLSPWGQGTLVTVSS
VL: DIVMTQSPSSLSASVGDRVTISCRASQSIRHYVNWYQQKPGKAPKLLIYKASSLASGAPSRFSGSGSGTDFTLTISSLQPDDFATYYCQQSYSIPLTFGGGTKVEIKR
binding result [3]: binds

B4: 1B18 scFv (scFv)
scFv: EVQLVQSGGGLVQPGGSRRLSCAASGFYFNAYWMTWVRQAPGKGLEWVANINLDGTEIYYLDSVKGRFTVSRDNVKNSVFLQMSSLRVEDTAVYFCARLEWGGRNGWVSPWGQGTLVTVSSGGGGSGGGGSGGGGSDVVMTQSPSSVSASVGDRVTITCRASQSISSYLNWYQQRPGKAPKLLIFAASSLQSAVPSRFSGSGSGTDFTLTISSLQPEDFATYYCQQSYSTPPTFGQGTKVEIK
binding result [4]: binds

B5: B6 scFv (scFv)
scFv: QVQLVQSGAEVKKPGESLVISCKASGDKDTFTSFWIAWVRQMPGKGLEWMGIIYAGDSDTRYSPSFQGHVNISVDRSTNTAYLQWSSLKASDTAMYYCARHDSRYKYFYFGMDVWGQGTTVTVSSGGGGSGGGGSGGGGSDVVMTQSPSSLSASVGDRITITCQAGQDISNFLNWYQQKPGKAPKLLIRDASNLETGVPSRFSGGGSGTHFTFTISSLHPEDIATYFCQQYDNLPYTFGQGTKLEIK
binding result [5]: binds

B6: B6 Fab (Fab, V domains shown)
VH: QVQLVQSGAEVKKPGESLVISCKASGDKDTFTSFWIAWVRQMPGKGLEWMGIIYAGDSDTRYSPSFQGHVNISVDRSTNTAYLQWSSLKASDTAMYYCARHDSRYKYFYFGMDVWGQGTTVTVSS
VL: DVVMTQSPSSLSASVGDRITITCQAGQDISNFLNWYQQKPGKAPKLLIRDASNLETGVPSRFSGGGSGTHFTFTISSLHPEDIATYFCQQYDNLPYTFGQGTKLEIKR
binding result [6]: binds

B7: B11 Fab (Fab, V domains shown)
VH: QVQLLQSAGGVVQPGRSLRLSCAASGFIFRTYGMHWVRQAPGKGLEWVAFVSSDGNNKFYSDSVKGRFTIPRDNAKNTLYLQMNSLETEDTAVYYCAKDRYPIDCSGGSCFSYGMDVWGQGTTVTVSS
VL: DIVMTQSPSTLSASVGDRVTVTCRASQSINSWLAWYQQKPGKAPKLLIYEASSLESGVPSRFSGSGSGTEFTLTISSLQPDDFATYYCQQYDSYWLTFGGGTKVEIKR
fold higher affinity than the scFv [7]: 1.46 fold

B8: 2B29 scFv (scFv)
scFv: QVQLQESGPGLVKPSETLSLTCSVSGGSINSGTYYWTWIRQHPGKGLEWIGYIYYSGTTYYNPSLKSRVSMSVDTSKNLFSLKMNSVTAADTALYYCARGNPQYDTSGSYTGLYFDFWGQGTLVTVSSGGGGSGGGGSGGGGSQPVLTQSPSASGTPGQRVTISCSGSSSNLGSNTVSWYQQLPGTAPKLLIYSNNQRPSGVPDRFSGSKSGTSASLAISGLQSEDEADYYCATWDDSLSGGVFGGGTKLTVL
binding result [8]: binds

B9: 6A12 IgG (antibody, V domains shown)
VH: QVQLVESGGGVVQPGRSLRLSCAASGFTFSSYGMHWVRQAPGKGLEWVSYISSSGSTIYYADSVKGRFTISRDNAKNSLYLQMNSLRAEDTAVYYCARVSIVGGPYGMDVWGQGTTVTVSS
VL: DIQMTQSPSSVSASVGNRVTITCRASQGISSWLAWYQQKPGKAPKLLIYAASSLQSGVPSRFSGSGSGTDFTLTISSLQPEDFATYYCQKANSFPLTFGGGTKMEIKR
binding result [1]: binds

B10: B11 scFv (scFv)
scFv: QVQLLQSAGGVVQPGRSLRLSCAASGFIFRTYGMHWVRQAPGKGLEWVAFVSSDGNNKFYSDSVKGRFTIPRDNAKNTLYLQMNSLETEDTAVYYCAKDRYPIDCSGGSCFSYGMDVWGQGTTVTVSSGGGGSGGGGSGGGGSDIVMTQSPSTLSASVGDRVTVTCRASQSINSWLAWYQQKPGKAPKLLIYEASSLESGVPSRFSGSGSGTEFTLTISSLQPDDFATYYCQQYDSYWLTFGGGTKVEIK
binding result [9]: binds

B11: 1B11 scFv (scFv)
scFv: QVQLLQSAGGVVQPGRSLRLSCAASGFIFRTYGMHWVRQAPGKGLEWVAFVSSDGNNKFYSDSVKGRFTIPRDNAKNTLYLQMNSLETEDTAVYYCAKDRYPIDCSGGSCFSYGMDVWGQGTTVTVSSGGGGSGGGGSGGGGSDIVMTQSPSTLSASVGDRVTVTCRASQSINSWLAWYQQKPGKAPKLLIYEASSLESGVPSRFSGSGSGTEFTLTISSLQPDDFATYYCQQYDSYWLTFGGGTKVEIK
binding result [4]: binds
